Measurements: patent US20220054583A1 (ANBITION S R L, published 2022)
Values belong to the binder of their own block, whether it stands above or below them. Square brackets hold non-standard residues; d marks the D form. Ends that are not written are not given here. * marks the point of attachment. Met(O2) = CS(=O)(=O)CC[C@H](N)C(=O)O; Cha = N[C@@H](CC1CCCCC1)C(=O)O; Bn = c1ccc(C*)cc1

Legend:
[1] = target: T1, human recombinant receptor VEGFR-1, seven extracellular domains fused to the Fc domain of human IgG (R&D … (human, UniProt P17948 27-758)); test: competition ELISA, VEGF-A binding to coated VEGFR-1-Fc
T1 construct: Bought reagent; also called Flt-1; not shown: Fc domain of human IgG

[2] = target: T2, human recombinant receptor VEGFR-1, seven extracellular domains fused to the Fc domain of human IgG (R&D Systems, cat No 321-FL) (human), P17948; test: competition ELISA, PlGF binding to coated VEGFR-1-Fc
T2 chain: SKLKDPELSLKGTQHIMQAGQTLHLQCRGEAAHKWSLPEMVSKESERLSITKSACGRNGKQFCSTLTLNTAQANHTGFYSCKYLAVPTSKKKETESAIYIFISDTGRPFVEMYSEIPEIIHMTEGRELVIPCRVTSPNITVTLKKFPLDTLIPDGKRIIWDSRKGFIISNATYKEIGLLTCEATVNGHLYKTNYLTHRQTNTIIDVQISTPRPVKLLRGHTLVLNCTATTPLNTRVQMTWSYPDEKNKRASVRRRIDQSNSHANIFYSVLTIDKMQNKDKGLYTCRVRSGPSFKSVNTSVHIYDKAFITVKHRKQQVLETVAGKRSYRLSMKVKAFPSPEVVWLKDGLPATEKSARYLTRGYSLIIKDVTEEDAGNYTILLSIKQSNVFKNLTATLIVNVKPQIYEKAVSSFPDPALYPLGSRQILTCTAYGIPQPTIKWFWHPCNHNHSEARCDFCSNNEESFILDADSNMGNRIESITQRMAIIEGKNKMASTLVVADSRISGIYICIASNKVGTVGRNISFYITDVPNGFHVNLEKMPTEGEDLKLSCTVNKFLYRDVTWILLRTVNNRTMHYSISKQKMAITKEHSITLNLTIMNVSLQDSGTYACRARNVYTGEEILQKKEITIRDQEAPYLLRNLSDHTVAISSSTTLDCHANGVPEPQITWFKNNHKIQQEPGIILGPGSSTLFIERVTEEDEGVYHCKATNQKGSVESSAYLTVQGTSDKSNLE

[3] = target: T2, human recombinant receptor VEGFR-1, …; test: competition ELISA, VEGF-A binding to coated VEGFR-1-Fc
[4] = target: T2, human recombinant receptor VEGFR-1, …; test: competition ELISA, residual binding of PlGF (5 ng/ml) to coated VEGFR-1-Fc, peptide 780 nM
[5] = target: T2, human recombinant receptor VEGFR-1, …; test: competition ELISA, residual binding of PlGF (5 ng/ml) to coated VEGFR-1-Fc, peptide 1560 nM
[6] = target: T2, human recombinant receptor VEGFR-1, …; test: competition ELISA, residual binding of PlGF (5 ng/ml) to coated VEGFR-1-Fc, peptide 3125 nM
[7] = target: T2, human recombinant receptor VEGFR-1, …; test: competition ELISA, residual binding of PlGF (5 ng/ml) to coated VEGFR-1-Fc, peptide 6250 nM
[8] = target: T2, human recombinant receptor VEGFR-1, …; test: competition ELISA, residual binding of PlGF (5 ng/ml) to coated VEGFR-1-Fc, peptide 12500 nM
[9] = target: T2, human recombinant receptor VEGFR-1, …; test: competition ELISA, residual binding of PlGF (5 ng/ml) to coated VEGFR-1-Fc, peptide 25000 nM
[10] = target: T2, human recombinant receptor VEGFR-1, …; test: competition ELISA, residual binding of PlGF (5 ng/ml) to coated VEGFR-1-Fc, peptide 50000 nM
[11] = target: T2, human recombinant receptor VEGFR-1, …; test: competition ELISA, residual binding of VEGF-A (5 ng/ml) to coated VEGFR-1-Fc, peptide 780 nM
[12] = target: T2, human recombinant receptor VEGFR-1, …; test: competition ELISA, residual binding of VEGF-A (5 ng/ml) to coated VEGFR-1-Fc, peptide 1560 nM
[13] = target: T2, human recombinant receptor VEGFR-1, …; test: competition ELISA, residual binding of VEGF-A (5 ng/ml) to coated VEGFR-1-Fc, peptide 3125 nM
[14] = target: T2, human recombinant receptor VEGFR-1, …; test: competition ELISA, residual binding of VEGF-A (5 ng/ml) to coated VEGFR-1-Fc, peptide 6250 nM
[15] = target: T2, human recombinant receptor VEGFR-1, …; test: competition ELISA, residual binding of VEGF-A (5 ng/ml) to coated VEGFR-1-Fc, peptide 12500 nM
[16] = target: T2, human recombinant receptor VEGFR-1, …; test: competition ELISA, residual binding of VEGF-A (5 ng/ml) to coated VEGFR-1-Fc, peptide 25000 nM
[17] = target: T2, human recombinant receptor VEGFR-1, …; test: competition ELISA, residual binding of VEGF-A (5 ng/ml) to coated VEGFR-1-Fc, peptide 50000 nM
[18] = target: T2, human recombinant receptor VEGFR-1, …; test: competition ELISA, PlGF or VEGF-A binding to coated VEGFR-1-Fc; reference iVR1

B1: tetrameric peptide of formula (II) with Y2 = L-methionine sulfone (peptide)
peptide: [dE]-Cys(Bn)-[Cha]
chain 1: Lys
chain 2: Lys-[Met(O2)]
modifications: also: tetrameric: four tripeptide arms on two Z1 lysines, carried on Z2 lysine
notes: Variant of iVR1-Cys with another Y2; only Y2 is printed
IC50 [1]: 4620 nM

B4: tetrameric peptide of formula (II) with Y2 = D-serine (peptide)
peptide: [dE]-Cys(Bn)-[Cha]
chain 1: Lys
chain 2: Lys-[dS]
modifications: also: tetrameric: four tripeptide arms on two Z1 lysines, carried on Z2 lysine
notes: as for B1
IC50 [1]: 2430 nM

B5: tetrameric peptide of formula (II) with Y2 = L-cysteine (peptide)
peptide: [dE]-Cys(Bn)-[Cha]
chain 1: Lys
chain 2: Lys-Cys
modifications: also: tetrameric: four tripeptide arms on two Z1 lysines, carried on Z2 lysine
notes: Variant of iVR1-Cys with another Y2
IC50 [1]: 2030 nM

The next lines start with the values.

IC50 [2]: 10000 nM
IC50 [3]: 10000 nM
binding % [4]: 99.4%
binding % [5]: 101%
binding % [6]: 96.1%
binding % [7]: 68.5%
binding % [8]: 44.6%
binding % [9]: 36%
binding % [10]: 26.3%
binding % [11]: 98.4%
binding % [12]: 96.2%
binding % [13]: 93.9%
binding % [14]: 66%
binding % [15]: 37%
binding % [16]: 21.4%
binding % [17]: 8.6%
B2: iVR1, tetrameric peptide of formula (IIc) (peptide)
peptide: H-[dE]-Cys(Bn)-[Cha]
chain 1: Lys
chain 2: Lys-Gly-NH2
modifications: also: branched: four ECX arms on two Z1 Lys, both on Z2 Lys

IC50 [2]: < 1000 nM
IC50 [3]: 1000 nM
fold inhibitory capacity against iVR1 [18]: 10 fold
binding % [4]: 83.8%
binding % [5]: 35.5%
binding % [6]: 25.5%
binding % [7]: 14.1%
binding % [8]: 12.6%
binding % [9]: 10.3%
binding % [10]: 9.18%
binding % [11]: 92.3%
binding % [12]: 43.7%
binding % [13]: 21.7%
binding % [14]: 12.5%
binding % [15]: 9.81%
binding % [16]: 7.99%
binding % [17]: 6.5%
B3: iVR1-Cys, tetrameric peptide of formula (IIb) (peptide)
peptide: H-[dE]-Cys(Bn)-[Cha]
chain 1: Lys
chain 2: Lys-[dC]-NH2
modifications: also: branched: four ECX arms on two Z1 Lys, both on Z2 Lys
